Tested on: HK-2 cells
Assay: Sepsis-associated AKI model: cell-free hemoglobin-treated HK-2 cells, MTT, LDH, CC3, Ki-67, MDA
Assay type: cell-based
Description: Immortalized human cortical and proximal tubular epithelial (HK-2) cells were cultured in DMEM-F-12 with FBS [10% (wt/vol)] (Life Technologies, Carlsbad, CA), Insulin-Transferrin-Selenium (ITS) (Corning, Corning, NY), hydrocortisone (0.1 μM), and 1% Penicillin/Streptomycin. […] To induce the sepsis-associated AKI model, cells at confluence were exposed to 1 mg/ml purified cell-free hemoglobin (CFH) for 48 h. For all experiments, we used CFH purified from normal human blood by high pressure liquid chromatography (Pishchany, G., et al. J Vis Exp. 2013 Feb. 7 (72): 50072). After 48 h, the control or treated cells were harvested for immunostaining or assays. In both models, culture media was replaced after 48 h. For iNP-EV treatment, 10 μg of EVs was added to cells for the next 24 h.
The organoids were washed with PBS and then treated with MTT (3-(4,5-dimethylthiazol-2-yl)-2,5-diphenyltetrazolium bromide) reagent (Sigma-Aldrich) (1 mg/ml) for at least 60 min, leading to the purple formazan formation in living cells. The reagents were then removed and isopropanol was added to dissolve the insoluble formazan. The absorbance of the colored solution was measured using a microplate reader at 560 nm and 690 nm. Background absorbance at 690 nm was subtracted from absorbance at 560 nm and the O.D. values were plotted to measure cell viability.
LDH release from the cells was evaluated using CyQUANT™ LDH Cytotoxicity Assay Kit. Briefly, cell culture medium was collected for other purposes at 48 h after the treatment. The cells were treated with 10% Triton X-100 and incubated for 15 min before to obtain the maximum LDH release from the sample. Cell culture media was collected and 50 μl of each sample was transferred into a 96-well opaque-walled, non-transparent assay plate. The LDH detection reagent was prepared by combining the LDH detection enzyme mix and reductase substrate. Then 50 μl of detection reagent was added to each well. The wells were incubated for 60 min at room temperature. […] was recorded on a plate reader at 490 nm and the corresponding O.D. was plotted to quantify cell death.

[1] = HK-2, 1 mg/ml CFH 48 h vs control

Substance: CFH: cell-free hemoglobin purified from normal human blood by high pressure liquid chromatography; induces sepsis-associated AKI model
- concentration of Malondialdehyde (MDA), lipid peroxidation (HK-2, 1 mg/ml CFH 48 h, without CFH ~3.5 μM, p<0.0001): 22.5 µM
- cleaved caspase-3 staining [1]: increased
- proliferation by Ki-67 staining [1]: not different between the groups
- LDH release (HK-2, 1 mg/ml CFH 48 h vs control, p<0.005): higher LDH release
- viability (MTT assay) (HK-2, 1 mg/ml CFH 48 h vs control, p=0.0001): substantial decline in viability

Reference: patent US20250221941A1, “NEPHRON PROGENITOR EXOSOMES” (VANDERBILT UNIVERSITY, priority 2021, published 2025)
